The values below come from article PMC5995566 (Biochemistry, 2017).

The target of this test is T1, human S100A5 (human).
T1 sequence (P33763 1-92, looked up): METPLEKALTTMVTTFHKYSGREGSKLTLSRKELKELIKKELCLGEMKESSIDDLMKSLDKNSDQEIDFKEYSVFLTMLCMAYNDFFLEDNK
Briefly: ITC. (In ITC the heat of successive injections is recorded.)

Regarding RRLLFYKYVYKR [12 amino acid fragment of the protein NCX1], binding was characterised by a dissociation constant (Kd) of 18 ± 4 µM and the dH was -3.6 ± 1 kcal/mol.
